Results reported in patent US20250197490A1 (HBM ALPHA THERAPEUTICS, published 2025).
Where two headings read alike, the source gives them in different places.

Legend:
[1] = biological target: T1, human UCN2 peptide, biotinylated (human, UniProt Q96RP3 72-109, limits assumed, biotin at N- or C-terminus); test: ELISA, hUCN2 (NT biotin) and (CT biotin)
T1 construct: also called hUCN2 (NT Biotin); hUCN2 (CT Biotin)
T1 peptide (looked up): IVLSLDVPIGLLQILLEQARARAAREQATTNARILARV

[2] = biological target: T2, CRH (Central Region, CT Biotin) (C-terminal K-Biotin); test: ELISA, CRH central region peptide (CT biotin)
T2 construct: also called Central CRH
T2 peptide: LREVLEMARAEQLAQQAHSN
Method in brief: (§1)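 Antibodies tested on biotinylated peptides captured on streptavidin-coated plates (2 μg/ml, coated overnight at 4° C). Detection used HRP anti-human IgG for 1 h at 37° C, then TMB for 15 min at room temperature; stopped and read at OD450 nm.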

[3] = biological target: T3, CRH (C-Terminal Region, NT Biotin) (N-terminal Biotin-K; C-terminal NH2); test: ELISA, CRH C-terminal region peptide (NT biotin)
T3 construct: central region plus C-terminal region of CRH; also called C-Terminal CRH; C-Ter-CRH
T3 peptide: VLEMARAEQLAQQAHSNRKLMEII
Method in brief: as §1

[4] = biological target: T4, human UCN1 peptide, biotinylated (human, UniProt P55089 83-122, biotin at N- or C-terminus); test: ELISA, hUCN1 (NT biotin) and (CT biotin)
T4 construct: also called hUCN1 (NT Biotin); hUCN1 (CT Biotin)
T4 peptide (looked up): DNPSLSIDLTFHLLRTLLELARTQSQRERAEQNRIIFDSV
Description: Streptavidin (Thermo, Cat: 21125) was diluted in PBS with a concentration of 2 μg/mL. 100 μL of diluted streptavidin was added per well to ELISA microplates, and the plates were incubated overnight at 4° C. Plates were blocked with ELISA blocking solution (containing 2% w/v BSA, 0.05% (v/v) Tween-20, pH 7.4 PBS buffer) at 37° C. for 1 hour, and then incubated with either 1 μg/mL hUCN1 (NT Biotin), hUCN1 (CT Biotin), hUCN2 (NT Biotin), hUCN2 (CT Biotin), hUCN3 (NT Biotin), or hUCN3 (CT Biotin) for 1 hour at 37° C. […] Plates were subsequently washed and incubated with HRP-conjugated goat anti-human IgG (H+L) antibody (Jackson, Cat: 109-035-088) at 37° C. for 1 hour. 100 μl of TMB Substrate (Biopanda, Cat: TMB-S-003) was added, and the plates were incubated at room temperature for 15 minutes. 100 μL of ELISA stopping solution (Solarbio, Cat #: C1058) was then added to terminate the reaction, and the OD450 nm was determined by an ELISA plate reader (Molecular Devices, Spectra max 384 plus).

[5] = biological target: T5, corticotropin-releasing hormone (CRH) peptide (human and mouse, UniProt P01143 145-185 (rat entry), not fully specified); test: cell-based or functional assay
T5 peptide: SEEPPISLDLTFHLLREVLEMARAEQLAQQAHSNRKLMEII

[6] = biological target: T6, CRH (Central Region, NT Biotin) (N-terminal Biotin-K; C-terminal NH2); test: ELISA, CRH central region peptide (NT biotin)
T6 construct: also called Central CRH
T6 peptide: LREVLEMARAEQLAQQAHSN
Method in brief: as §1

biotinylated CRH [7] = biological target: T7, biotinylated CRH (human and mouse, UniProt P01143 145-185 (rat entry), not fully specified; biotin; which end is not stated for the result (NT-biotin and CT-biotin forms were used)); test: ELISA, CRH (NT biotin)
T7 construct: also called biotin-CRH; CRH (NT biotin)
T7 peptide: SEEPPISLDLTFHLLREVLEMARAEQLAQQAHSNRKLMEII
Method in brief: as §1

[8] = biological target: T8, human UCN3 peptide, biotinylated (human, UniProt Q969E3 120-157, biotin at N- or C-terminus); test: ELISA, hUCN3 (NT biotin) and (CT biotin)
T8 construct: also called hUCN3 (NT Biotin); hUCN3 (CT Biotin)
T8 peptide (looked up): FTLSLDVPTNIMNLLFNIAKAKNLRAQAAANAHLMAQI

[9] = biological target: T9, N-Terminal CRH peptide (N-terminal region plus central region, CT biotin) (human and mouse, C-terminal K-Biotin); test: ELISA, N-Ter-CRH (CT-biotin) on streptavidin
T9 construct: also called N-Ter-CRH
T9 peptide: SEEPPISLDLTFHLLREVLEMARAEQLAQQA
Method in brief: as §1

biotinylated CRH [10] = biological target: T7, biotinylated CRH; test: ELISA, CRH (CT biotin)
Method in brief: as §1

[11] = biological target: T5, corticotropin-releasing hormone (CRH) …; test: cell-based or functional assay
biotinylated CRH [12] = biological target: T7, biotinylated CRH; test: ELISA, CRH (CT biotin)
biotinylated CRH [13] = biological target: T7, biotinylated CRH; test: ELISA, CRH (NT biotin)
biotinylated CRH [14] = biological target: T7, biotinylated CRH; test: ELISA, CRH (CT biotin)
biotinylated CRH [15] = biological target: T7, biotinylated CRH; test: ELISA, CRH (NT biotin)
biotinylated CRH [16] = biological target: T7, biotinylated CRH; test: ELISA, CRH (CT biotin)
Description: Streptavidin (Thermo, Cat: 21125) was diluted in PBS to a concentration of 2 μg/ml. 100 μl of diluted streptavidin was added per well to ELISA microplates, and the plates were incubated overnight at 4° C. […] Subsequently, plates were washed and incubated with HRP-conjugated goat anti-human IgG (H+L) antibody (Jackson, Cat: 109-035-088) at 37° C. for 1 hour. 100 μL of 3,3′,5,5′-tetramethylbenzidine (TMB) substrate (Biopanda, Cat: TMB-S-003) was added, and the plates were incubated at room temperature for 15 minutes. 100 μL of ELISA stopping solution (Solarbio, Cat #: C1058) was added to terminate the reaction, and the optical density at 450 nm (OD450 nm) was determined by an ELISA plate reader (Molecular Devices, Spectra max 384 plus).
These potential PTMs were mutated individually either in HCDR2 alone, in LCDR1 alone, or in various combinations of mutations, as detailed in Table 3. […] Most ΔPTM variants retained functional activities.

[17] = biological target: T5, corticotropin-releasing hormone (CRH) …; test: cell-based or functional assay
[18] = biological target: T5, corticotropin-releasing hormone (CRH) …; test: cell-based or functional assay
[19] = biological target: T5, corticotropin-releasing hormone (CRH) …; test: cell-based or functional assay
biotinylated CRH [20] = biological target: T7, biotinylated CRH; test: ELISA, CRH (NT biotin)
[21] = biological target: T5, corticotropin-releasing hormone (CRH) …; test: cell-based or functional assay
biotinylated CRH [22] = biological target: T7, biotinylated CRH; test: ELISA, CRH (NT biotin)

B1: PR302334-26 (antibody, human IgG1, kappa, V domains shown)
VH: EVQLVESGGGLVQPGGSLRLSCAASGFTFSTYAMSWVRQAPGKGLEWVASIRSGGTTYYPDSVKGRFTISRDNSKNSLYLQMNSLRAEDTAVYYCTRGIDWGQGTTVTVSS
VL: DIVMTQSPDSLAVSLGERATINCKASQSVNNDVAWYQQKPGQPPRLLIYYASNRYTGVPDRFSGSGSGTDFTLTISSLQAEDLAVYFCQQDYSSWTFGGGTKVEIKR
binding result [1]: no binding (tested: 100 nM) | binding result [2]: no binding (tested: 100 nM) | binding result [3]: no binding (tested: 100 nM) | binding result [4]: no binding (tested: 100 nM) | hCRHR1-Luc 0.5 nM CRH IC50 [5]: 1.1 nM | binding result [6]: no binding (tested: 100 nM) | EC50 (read off the curve) (biotinylated CRH [7]): ~0.03 nM | binding result [8]: no binding (tested: 100 nM) | EC50 [9]: 0.029 nM | EC50 (read off the curve) (biotinylated CRH [10]): ~0.03 nM

B2: PR004290 (antibody, human IgG1, kappa, V domains shown)
VH: EVQLVESGGVLVQPGGSLRLSCAASGFTFSSYWMTWVRQAPGKGLEWVANIKQDGSEKYYVDSVKGRFTISRDNAKNSLFLQMNSLRAEDTAVYYCARTLIFDYWGQGTLVTVSS
VL: DIVMTQSPLSLPVTPGEPASISCRSSQSLLHSTGYNSLEWYLQKPGQSPQLLIYLGSNRASGVPDRFSGSGSGTDFTLKISRVEAEDVGIYYCMQTLQTPITFGQGTRLEIKR
notes: human IgG1 wildtype Fc; also called Hybridoma Clone 28b3
IC50 (read off the curve), CRH-induced hCRHR1 luciferase reporter [11]: ~3 nM | EC50 (read off the curve) (biotinylated CRH [12]): ~0.03 nM | EC50 (read off the curve) (biotinylated CRH [13]): ~0.05 nM | EC50 (read off the curve) (biotinylated CRH [14]): ~0.01 nM | EC50 (read off the curve) (biotinylated CRH [15]): ~0.03 nM | EC50 (read off the curve) (biotinylated CRH [16]): ~0.05 nM | IC50 (read off the curve), CRH-induced mCRHR1 luciferase reporter [17]: ~8 nM | IC50 in the hCRHR1 reporter assay [18]: ~5 nM | IC50 (read off the curve), CRH-induced mCRHR1 luciferase reporter [19]: ~5 nM | EC50 (read off the curve) (biotinylated CRH [20]): ~0.01 nM | IC50 (read off the curve), CRH-induced hCRHR1 luciferase reporter [21]: ~3 nM | EC50 (read off the curve) (biotinylated CRH [22]): ~0.01 nM
